The test system of data set [1] is HeLa Kyoto. The data set is described as follows: solubility in G1/S (NP-40 vs SDS abundance) (log2 ratio); higher = more soluble. Conditions: cell cycle stage: G1/S.
Data set [2] relates to HeLa Kyoto. As to the kind of experiment: solubility change mitosis vs G1/S (difference of NP-40 vs SDS log2 ratios) (log2 ratio difference); higher = more soluble in mitosis.
Data set [3] has as its system HeLa Kyoto. As to the kind of experiment: thermal stability score vs G1/S (z-score of summed log2 fold changes over temperatures); higher = more thermally stable than in G1/S.
Where [4] appears, read: cell cycle stage: early G1 (4.5 h after nocodazole release).
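Throughout, for solubility change mitosis vs G1/S (difference of NP-40 vs SDS log2 ratios): synchronized HeLa Kyoto cells (double thymidine block for G1/S, nocodazole release for mitosis), protein amounts in NP-40 versus SDS lysates quantified by mass spectrometry, three biological replicates.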
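Throughout, for solubility in G1/S (NP-40 vs SDS abundance): HeLa Kyoto cells arrested at G1/S by double thymidine block, proteins quantified by TMT10plex mass spectrometry in mild NP-40 versus SDS extracts, three biological replicates.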
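Throughout, for thermal stability score vs G1/S (z-score of summed log2 fold changes over temperatures): synchronized HeLa Kyoto cells, proteins quantified by TMT10plex mass spectrometry, three biological replicates, mitosis taken 0.5 h after nocodazole release, G1/S directly after double thymidine block.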

Chain of THBS1 (chain, as listed by the source): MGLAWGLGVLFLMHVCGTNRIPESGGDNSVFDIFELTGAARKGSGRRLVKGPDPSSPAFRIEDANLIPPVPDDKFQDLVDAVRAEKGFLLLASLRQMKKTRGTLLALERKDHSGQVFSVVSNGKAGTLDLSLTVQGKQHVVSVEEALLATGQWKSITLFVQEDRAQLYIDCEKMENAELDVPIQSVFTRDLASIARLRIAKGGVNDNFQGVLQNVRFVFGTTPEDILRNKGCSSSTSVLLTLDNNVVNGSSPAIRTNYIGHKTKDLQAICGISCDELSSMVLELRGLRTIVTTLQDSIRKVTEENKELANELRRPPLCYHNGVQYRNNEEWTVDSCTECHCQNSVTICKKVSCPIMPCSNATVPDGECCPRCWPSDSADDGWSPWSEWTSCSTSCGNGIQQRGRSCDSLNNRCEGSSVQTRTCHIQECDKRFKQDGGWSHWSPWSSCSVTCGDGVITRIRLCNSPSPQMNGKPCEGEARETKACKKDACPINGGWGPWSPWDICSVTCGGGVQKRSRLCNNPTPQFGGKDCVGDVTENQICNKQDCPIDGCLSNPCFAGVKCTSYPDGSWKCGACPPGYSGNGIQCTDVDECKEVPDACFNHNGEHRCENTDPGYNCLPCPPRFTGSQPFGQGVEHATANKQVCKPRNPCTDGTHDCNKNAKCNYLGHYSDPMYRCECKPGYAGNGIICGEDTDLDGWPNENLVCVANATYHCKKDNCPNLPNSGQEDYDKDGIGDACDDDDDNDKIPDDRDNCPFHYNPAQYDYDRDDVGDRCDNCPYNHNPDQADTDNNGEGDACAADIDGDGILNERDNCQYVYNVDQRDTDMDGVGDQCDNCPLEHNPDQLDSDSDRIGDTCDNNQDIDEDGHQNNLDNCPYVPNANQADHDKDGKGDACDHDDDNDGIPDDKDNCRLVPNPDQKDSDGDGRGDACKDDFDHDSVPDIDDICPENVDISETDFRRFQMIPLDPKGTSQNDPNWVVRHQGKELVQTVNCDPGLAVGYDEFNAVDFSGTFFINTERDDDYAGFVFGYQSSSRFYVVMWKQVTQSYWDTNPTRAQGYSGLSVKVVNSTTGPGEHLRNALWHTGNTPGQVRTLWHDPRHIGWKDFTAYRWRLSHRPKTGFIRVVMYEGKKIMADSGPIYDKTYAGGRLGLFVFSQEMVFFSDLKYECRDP

In the case of “MSENLDKSNVNEAGKSKSNDSEEGLEDAVEGADEALQKAIKSDSSSPQRVQRPHSSPPRFVTVEELLETARGVTNMALAHEIVVNGDFQIKPVELPENSLKKRVKEIVHKAFWDCLSVQLSEDPPAYDHAIKLVGEIKETLLSFLLPGHTRLRNQITEVLDLDLIKQEAENGALDISKLAEFIIGMMGTLCAPARDEEVKKLKDIKEIVPLFREIFSVLDLMKVDMANFAISSIRPHLMQQSVEYERKKFQEILERQPNSLDFVTQWLEEASEDLMTQKYKHALPVGGMAAGSGDMPRLSPVAVQNYAYLKLLKWDHLQRPFPETVLMDQSRFHELQLQLEQLTILGAVLLVTFSMAAPGISSQADFAEKLKMIVKILLTDMHLPSFHLKDVLTTIGEKVCLEVSSCLSLCGSSPFTTDKETVLKGQIQAVASPDDPIRRIMESRILTFLETYLASGHQKPLPTVPGGLSPVQRELEEVAIKFARLVNYNKMVFCPYYDAILSKILVRS [TCP11L1]”, in the data set with HeLa Kyoto [1], the “solubility in G1/S (log2)” value amounted to 0.346. In addition, the “solubility change mitosis (log2)” value in the data set on HeLa Kyoto [2] worked out at 0.1. In addition, the values for the thermal stability score in the data set on HeLa Kyoto [3] (setting [4]) and in the data set with HeLa Kyoto [3] (cell cycle stage: mitosis) were 1.37 and 1.4, respectively.
Regarding ABCA2, the “solubility in G1/S (log2)” value in the data set with HeLa Kyoto [1] amounted to 0.0925. Also, the “solubility change mitosis (log2)” value in the data set on HeLa Kyoto [2] is -0.105. Further, the thermal stability score was 0.174 with HeLa Kyoto [3] (setting [4]) and -0.253 in the data set with HeLa Kyoto [3] (cell cycle stage: mitosis).
Take TACC1: the “solubility in G1/S (log2)” value in the data set with HeLa Kyoto [1] turned out to be 0.335. Besides, the “solubility change mitosis (log2)” value in the data set on HeLa Kyoto [2] is -0.0581. For the same substance, the thermal stability score in the data set on HeLa Kyoto [3] (setting [4]) is -4.04; in the data set with HeLa Kyoto [3] (cell cycle stage: mitosis), -4.77.
On to “MPEESSPRRTPQSIPYQDLPHLVNADGQYLFCRYWKPTGTPKALIFVSHGAGEHSGRYEELARMLMGLDLLVFAHDHVGHGQSEGERMVVSDFHVFVRDVLQHVDSMQKDYPGLPVFLLGHSMGGAIAILTAAERPGHFAGMVLISPLVLANPESATTFKVLAAKVLNLVLPNLSLGPIDSSVLSRNKTEVDIYNSDPLICRAGLKVCFGIQLLNAVSRVERALPKLTVPFLLLQGSADRLCDSKGAYLLMELAKSQDKTLKIYEGAYHVLHKELPEVTNSVFHEINMWVSQRTATAGTASPP [MGLL]”, for which the “solubility in G1/S (log2)” value in the data set on HeLa Kyoto [1] was found to be 0.347. In addition, the “solubility change mitosis (log2)” value in the data set with HeLa Kyoto [2] was -0.16. Also, the thermal stability score in the data set on HeLa Kyoto [3] (setting [4]) is 0.0154; with HeLa Kyoto [3] (cell cycle stage: mitosis) it was -0.539.
For “MERRSRRKSRRNGRSTAGKAAATQPAKSPGAQLWLFPSAAGLHRALLRRVEVTRQLCCSPGRLAVLERGGAGVQVHQLLAGSGGARTPKCIKLGKNMKIHSVDQGAEHMLILSSDGKPFEYDNYSMKHLRFESILQEKKIIQITCGDYHSLALSKGGELFAWGQNLHGQLGVGRKFPSTTTPQIVEHLAGVPLAQISAGEAHSMALSMSGNIYSWGKNECGQLGLGHTESKDDPSLIEGLDNQKVEFVACGGSHSALLTQDGLLFTFGAGKHGQLGHNSTQNELRPCLVAELVGYRVTQIACGRWHTLAYVSDLGKVFSFGSGKDGQLGNGGTRDQLMPLPVKVSSSEELKLESHTSEKELIMIAGGNQSILLWIKKENSYVNLKRTIPTLNEGTVKRWIADVETKRWQSTKREIQEIFSSPACLTGSFLRKRRTTEMMPVYLDLNKARNIFKELTQKDWITNMITTCLKDNLLKRLPFHSPPQEALEIFFLLPECPMMHISNNWESLVVPFAKVVCKMSDQSSLVLEEYWATLQESTFSKLVQMFKTAVICQLDYWDESAEENGNVQALLEMLKKLHRVNQVKCQLPESIFQVDELLHRLNFFVEVCRRYLWKMTVDASENVQCCVIFSHFPFIFNNLSKIKLLHTDTLLKIESKKHKAYLRSAAIEEERESEFALRPTFDLTVRRNHLIEDVLNQLSQFENEDLRKELWVSFSGEIGYDLGGVKKEFFYCLFAEMIQPEYGMFMYPEGASCMWFPVKPKFEKKRYFFFGVLCGLSLFNCNVANLPFPLALFKKLLDQMPSLEDLKELSPDLGKNLQTLLDDEGDNFEEVFYIHFNVHWDRNDTNLIPNGSSITVNQTNKRDYVSKYINYIFNDSVKAVYEEFRRGFYKMCDEDIIKLFHPEELKDVIVGNTDYDWKTFEKNARYEPGYNSSHPTIVMFWKAFHKLTLEEKKKFLVFLTGTDRLQMKDLNNMKITFCCPESWNERDPIRALTCFSVLFLPKYSTMETVEEALQEAINNNRGFG [HERC5]”, in that order: -1.44, 0.525, -0.386 and -1.53.
In the case of “MVDRLANSEANTRRISIVENCFGAAGQPLTIPGRVLIGEGVLTKLCRKKPKARQFFLFNDILVYGNIVIQKKKYNKQHIIPLENVTIDSIKDEGDLRNGWLIKTPTKSFAVYAATATEKSEWMNHINKCVTDLLSKSGKTPSNEHAAVWVPDSEATVCMRCQKAKFTPVNRRHHCRKCGFVVCGPCSEKRFLLPSQSSKPVRICDFCYDLLSAGDMATCQPARSDSYSQSLKSPLNDMSDDDDDDDSSD [PLEKHF2]”, in the data set on HeLa Kyoto [1], the “solubility in G1/S (log2)” value was determined as 0.163. Moreover, the “solubility change mitosis (log2)” value in the data set on HeLa Kyoto [2] was -0.0311. In addition, the thermal stability score in the data set with HeLa Kyoto [3] (setting [4]) is 0.212; in the data set with HeLa Kyoto [3] (cell cycle stage: mitosis) it was 0.829.
As for KIAA0430, in the data set on HeLa Kyoto [1], the “solubility in G1/S (log2)” value is -0.0573. The “solubility change mitosis (log2)” value in the data set on HeLa Kyoto [2] was found to be 0.0372. The figures for the thermal stability score with HeLa Kyoto [3] (setting [4]) and in the data set with HeLa Kyoto [3] (cell cycle stage: mitosis) were -0.446 and -0.799, respectively.
For THBS1, the “solubility in G1/S (log2)” value with HeLa Kyoto [1] is -0.19. Further, in the data set with HeLa Kyoto [2], the “solubility change mitosis (log2)” value turned out to be 0.0125. Further, the thermal stability score in the data set on HeLa Kyoto [3] (setting [4]) came to 4.61; with HeLa Kyoto [3] (cell cycle stage: mitosis), 5.07.
The matching figures for URB2: -1.43, 0.744, 1.35 and 1.43.
Turning to “MSRPVRNRKVVDYSQFQESDDADEDYGRDSGPPTKKIRSSPREAKNKRRSGKNSQEDSEDSEDKDVKTKKDDSHSAEDSEDEKEDHKNVRQQRQAASKAASKQREMLMEDVGSEEEQEEEDEAPFQEKDSGSDEDFLMEDDDDSDYGSSKKKNKKMVKKSKPERKEKKMPKPRLKATVTPSPVKGKGKVGRPTASKASKEKTPSPKEEDEEPESPPEKKTSTSPPPEKSGDEGSEDEAPSGED [NUCKS1]”, the “solubility in G1/S (log2)” value in the data set with HeLa Kyoto [1] is 0.444. In the data set on HeLa Kyoto [2], the “solubility change mitosis (log2)” value was found to be 0.307. The thermal stability score in the data set with HeLa Kyoto [3] (setting [4]) was -0.14; with HeLa Kyoto [3] (cell cycle stage: mitosis), 1.15.
Turning to NHSL1, the “solubility in G1/S (log2)” value in the data set with HeLa Kyoto [1] was -0.0561. For the same substance, the “solubility change mitosis (log2)” value with HeLa Kyoto [2] was -0.0684. Also, the figures for the thermal stability score in the data set with HeLa Kyoto [3] (setting [4]) and in the data set with HeLa Kyoto [3] (cell cycle stage: mitosis) were 0.447 and 1.09, respectively.
For “MSSILPFTPPIVKRLLGWKKGEQNGQEEKWCEKAVKSLVKKLKKTGQLDELEKAITTQNVNTKCITIPRSLDGRLQVSHRKGLPHVIYCRLWRWPDLHSHHELRAMELCEFAFNMKKDEVCVNPYHYQRVETPVLPPVLVPRHTEIPAEFPPLDDYSHSIPENTNFPAGIEPQSNIPETPPPGYLSEDGETSDHQMNHSMDAGSPNLSPNPMSPAHNNLDLQPVTYCEPAFWCSISYYELNQRVGETFHASQPSMTVDGFTDPSNSERFCLGLLSNVNRNAAVELTRRHIGRGVRLYYIGGEVFAECLSDSAIFVQSPNCNQRYGWHPATVCKIPPGCNLKIFNNQEFAALLAQSVNQGFEAVYQLTRMCTIRMSFVKGWGAEYRRQTVTSTPCWIELHLNGPLQWLDKVLTQMGSPSIRCSSVS [SMAD3]”, in the data set with HeLa Kyoto [1], the “solubility in G1/S (log2)” value was -0.184. The “solubility change mitosis (log2)” value with HeLa Kyoto [2] was 0.0397. For the same substance, the values for the thermal stability score with HeLa Kyoto [3] (setting [4]) and with HeLa Kyoto [3] (cell cycle stage: mitosis) were -0.574 and -1.15, respectively.
For “MKVVPEKNAVRILWGRERGARAMGAQRLLQELVEDKTRWMKWEGKRVELPDSPRSTFLLAFSPDRTLLASTHVNHNIYITEVKTGKCVHSLIGHRRTPWCVTFHPTISGLIASGCLDGEVRIWDLHGGSESWFTDSNNAIASLAFHPTAQLLLIATANEIHFWDWSRREPFAVVKTASEMERVRLVRFDPLGHYLLTAIVNPSNQQGDDEPEIPIDGTELSHYRQRALLQSQPVRRTPLLHNFLHMLSSRSSGIQVGEQSTVQDSATPSPPPPPPQPSTERPRTSAYIRLRQRVSYPTAECCQHLGILCLCSRCSGTRVPSLLPHQDSVPPASARATTPSFSFVQTEPFHPPEQASSTQQDQGLLNRPSAFSTVQSSTAGNTLRNLSLGPTRRSLGGPLSSHPSRYHREIAPGLTGSEWTRTVLSLNSRSEAESMPPPRTSASSVSLLSVLRQQEGGSQASVYTSATEGRGFPASGLATESDGGNGSSQNNSGSIRHELQCDLRRFFLEYDRLQELDQSLSGEAPQTQQAQEMLNNNIESERPGPSHQPTPHSSENNSNLSRGHLNRCRACHNLLTFNNDTLRWERTTPNYSSGEASSSWQVPSSFESVPSSGSQLPPLERTEGQTPSSSRLELSSSASPQEERTVGVAFNQETGHWERIYTQSSRSGTVSQEALHQDMPEESSEEDSLRRRLLESSLISLSRYDGAGSREHPIYPDPARLSPAAYYAQRMIQYLSRRDSIRQRSMRYQQNRLRSSTSSSSSDNQGPSVEGTDLEFEDFEDNGDRSRHRAPRNARMSAPSLGRFVPRRFLLPEYLPYAGIFHERGQPGLATHSSVNRVLAGAVIGDGQSAVASNIANTTYRLQWWDFTKFDLPEISNASVNVLVQNCKIYNDASCDISADGQLLAAFIPSSQRGFPDEGILAVYSLAPHNLGEMLYTKRFGPNAISVSLSPMGRYVMVGLASRRILLHPSTEHMVAQVFRLQQAHGGETSMRRVFNVLYPMPADQRRHVSINSARWLPEPGLGLAYGTNKGDLVICRPEALNSGVEYYWDQLNETVFTVHSNSRSSERPGTSRATWRTDRDMGLMNAIGLQPRNPATSVTSQGTQTLALQLQNAETQTEREVPEPGTAASGPGEGEGSEYGASGEDALSRIQRLMAEGGMTAVVQREQSTTMASMGGFGNNIIVSHRIHRSSQTGTEPGAAHTSSPQPSTSRGLLPEAGQLAERGLSPRTASWDQPGTPGREPTQPTLPSSSPVPIPVSLPSAEGPTLHCELTNNNHLLDGGSSRGDAAGPRGEPRNR [AMBRA1]”, in the data set with HeLa Kyoto [1], the “solubility in G1/S (log2)” value turned out to be 0.0307. Also, the “solubility change mitosis (log2)” value with HeLa Kyoto [2] is -0.123. Moreover, the thermal stability score in the data set on HeLa Kyoto [3] (setting [4]) was found to be 0.941; with HeLa Kyoto [3] (cell cycle stage: mitosis), 1.96.
For “MFSVLSYGRLVARAVLGGLSQTDPRAGGGGGGDYGLVTAGCGFGKDFRKGLLKKGACYGDDACFVARHRSADVLGVADGVGGWRDYGVDPSQFSGTLMRTCERLVKEGRFVPSNPIGILTTSYCELLQNKVPLLGSSTACIVVLDRTSHRLHTANLGDSGFLVVRGGEVVHRSDEQQHYFNTPFQLSIAPPEAEGVVLSDSPDAADSTSFDVQLGDIILTATDGLFDNMPDYMILQELKKLKNSNYESIQQTARSIAEQAHELAYDPNYMSPFAQFACDNGLNVRGGKPDDITVLLSIVAEYTD [PPTC7]”, in that order: -0.0546, -0.0876, -1.55 and -0.178.

The record behind these values is the supplement of paper PMC5998384.
